Measurements as given in patent publication US20040072179.
Read-outs that look alike come from different tables or passages of the source.

What was measured:
[1] = tested on: 17 kDa substrate containing the target cleavage site Glu-Asn-Leu-Tyr-Phe-Gln-Gly (SEQ ID NO: 5)
[2] = target: 17 kDa substrate containing the target cleavage site Glu-Asn-Leu-Tyr-Phe-Gln-Gly (SEQ ID NO: 5); remark: listed apart in the source

| Molecule | specific activity for substrate cleavage [1] | specific activity for substrate cleavage [2] | substrate cleavage (SDS-PAGE) [2] |
| --- | --- | --- | --- |
| TPSN (mutant 27 kDa NIa proteinase with Ser219 to Asn mutation, C-terminal His6 tag) | TPWT and TPSN have similar activity to each other and to the commercially available proteinase at all substrate concentrations tested | – | – |
| TPWT (wild type 27 kDa NIa proteinase of tobacco etch virus, C-terminal His6 tag) (protein) MAESGESLFKGPRDYNPISSTICHLTNESDGHTTSLYGIGFGPFIITNKHLFRRNNGTLLVQSLHGVFKVKNTTTLQQHLIDGRDMIIIRMPKDFPPFPQKLKFREPQREERICLVTTNFQTKSMSSMVSDTSCTFPSSDGIFWKHWIQTKDGQCGSPLVSTRDGFIVGIHSASNFTNTNNYFTSVPKNFMELLTNQEAQQWVSGWRLNADSVLWGGHKVFMSKPEEPFQPVKEATQLMNELVYSQLHHHHHH | – | TPWT and TPSN have similar activity to each other and to the commercially available proteinase at all substrate concentrations tested | – |
| commercially available 27 kDa NIa proteinase (GibcoBRL) (protein) GESLFKGPRDYNPISSTICHLTNESDGHTTSLYGIGFGPFIITNKHLFRRNNGTLLVQSLHGVFKVKNTTTLQQHLIDGRDMIIIRMPKDFPPFPQKLKFREPQREERICLVTTNFQTKSMSSMVSDTSCTFPSSDGIFWKHWIQTKDGQCGSPLVSTRDGFIVGIHSASNFTNTNNYFTSVPKNFMELLTNQEAQQWVSGWRLNADSVLWGGHKVFMSKPEEPFQPVKEATQLMNELVYSQ | – | TPWT and TPSN have similar activity to each other and to the commercially available proteinase at all substrate concentrations tested | produces a ˜15 kDa peptide when cleaved with commercially available 27 kDa NIa proteinase (GibcoBRL) |
